Source: publication PMC11963761, “Structural basis for control of integrative and conjugative element excision and transfer by the oligomeric winged helix–turn–helix protein RdfS”
One block for each molecule: values may come before it.

Experiments:
[1] = biological target: 6H-RdfS, N-terminal hexahistidine fusion of RdfS (Mesorhizobium japonicum R7A); test: SEC-SAXS; SEC-SY-SAXS (Australian Synchrotron) of 6H-RdfS bound to the 40-bp dsDNA attP_8; mass of the nucleoprotein complex from scattering
[2] = biological target: RdfS_(13–89), α1-truncated RdfS (Mesorhizobium japonicum R7A); test: SEC; analytical gel filtration, Superdex 75 10/300 GL, 50 mM Tris–HCl, 300 mM NaCl, 5% (v/v) glycerol, pH 7.4, 4°C, 0.5 ml/min; protein at ∼7 mg/ml, 50 μl injected; no DNA
[3] = system: RdfS13-89 (Mesorhizobium japonicum R7A (ICEMlSymR7A)); test: EMSA; settings: EMSA: DNA master mix 50 mM Tris-HCl, 150 mM NaCl, 5% glycerol, pH 7.4, 1 unit poly[d(I-C)] (10 of 20 uL), 10 nM DNA; SPR: ReDCaT on Biacore T200, 1 uM protein …
[4] = biological target: T1, RdfS (Mesorhizobium japonicum R7A (ICEMlSymR7A)) (UniProt Q7AL96); test: EMSA; settings: EMSA: DNA master mix 50 mM Tris-HCl, 150 mM NaCl, 5% glycerol, pH 7.4, 1 unit poly[d(I-C)] (10 of 20 uL), 10 nM DNA; SPR: ReDCaT on Biacore T200, 1 uM protein …
T1 sequence: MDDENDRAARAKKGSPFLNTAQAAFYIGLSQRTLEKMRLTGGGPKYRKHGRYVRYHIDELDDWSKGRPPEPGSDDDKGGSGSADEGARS

[5] = biological target: RdfS, recombination directionality factor of ICEMlSym^R7A (6H tag removed) (Mesorhizobium japonicum R7A); test: SEC; analytical gel filtration, Superdex 75 10/300 GL, 50 mM Tris–HCl, 300 mM NaCl, 5% (v/v) glycerol, pH 7.4, 4°C, 0.5 ml/min; protein at ∼7 mg/ml, 50 μl injected; no DNA
6H-RdfS = biological target: T2, 6H-RdfS (Mesorhizobium japonicum R7A …, UniProt Q7AL96 1-89); test: SEC-SAXS; 4:1 protein:dsDNA; EMSA: DNA master mix 50 mM Tris-HCl, 150 mM NaCl, 5% glycerol, pH 7.4, 1 unit poly[d(I-C)] (10 of 20 uL), 10 nM DNA; SPR: ReDCaT on Biacore T200, 1 uM protein; settings: protein: recombinant; tags: N-terminal 6xHis; chain copies: 4; blunt
T2 sequence: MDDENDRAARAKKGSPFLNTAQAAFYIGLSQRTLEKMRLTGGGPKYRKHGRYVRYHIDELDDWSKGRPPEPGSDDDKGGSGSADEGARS

Molecule: 6H-RdfS, N-terminal hexahistidine fusion of RdfS (natural protein)
stoichiometry N [1]: 4

Molecule: attP 283 bp
binding signal (% of RdfS affinity) [3]: 50

Molecule: GCCGGCTCAAGCCCTCGCGCCGCAACTCGGCGCGGGGGTTCCCGCCGACGCTCGCCCGAAGGGGCGGCGAAAACTCCCACCCGACTCTTCGCCCGTCCCCACGACGACCTCGTTCGCCGATCCTCGCGGTTGCTTGTCCGAAGCGAAACGAGGACC (double strand) [PrdfS 162 bp]
binding [4]: binds

B1: attP_8 40-mer (dsDNA)
DNA 1: GAATTTCGGCGCAGTTGGTCCAACGAGGCGGGGGGCTGGT
DNA 2: ACCAGCCCCCCGCCTCGTTGGACCAACTGCGCCGAAATTC
binding result (6H-RdfS): binds

The remaining lines, values ahead:

stoichiometry N [2]: 2
Molecule: RdfS_(13–89), α1-truncated RdfS (domain or fragment)

stoichiometry N [5]: 4
Molecule: RdfS, recombination directionality factor of ICEMlSym^R7A (6H tag removed) (natural protein)
